Results from paper PMC7954794, “Protein context shapes the specificity of SH3 domain-mediated interactions in vivo” (Nature Communications, 2021).

System: Abp1 PPIs
Assay: DHFR-PCA of Abp1 SH3-swapped baits (Fig. 2B-D, S2C, S2F);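 for Protein-protein interaction distance between Abp1 SH3-swapped baits, to ABP1: Euclidean distance between DHFR-PCA score profiles of the baits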;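 for Protein-protein interaction distance between Abp1 SH3-swapped baits, to BEM1-2: Euclidean distance between DHFR-PCA score profiles of the baits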;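 for Protein-protein interaction distance between Abp1 SH3-swapped baits, to BOI1: Euclidean distance between DHFR-PCA score profiles of the baits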;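 for Protein-protein interaction distance between Abp1 SH3-swapped baits, to BZZ1-1: Euclidean distance between DHFR-PCA score profiles of the baits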
Assay type: cell-based, Saccharomyces cerevisiae
Details: sheet Fig2C
Summary of the method: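 Interactions were scored by DHFR protein-fragment complementation. DHFR F[1,2]-tagged Abp1 strains, whose SH3 was swapped for yeast or human ortholog domains, were crossed on YPD at 30 °C for 48 h with a 1536-format array of 575 prey-DHFR F[3] strains and 40 negatives, giving four replicates per pair. PCA selection lasted 4 days after double diploid selection.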

B1: ABP1: yeast SH3-containing protein; SH3-deleted (D) or gene-deleted (KO) strain (protein, UniProt P15891 2-592, looked up)
Actin-binding protein: ALEPIDYTTHSREIDAEYLKIVRGSDPDTTWLIISPNAKKEYEPESTGSSFHDFLQLFDETKVQYGLARVSPPGSDVEKIIIIGWCPDSAPLKTRASFAANFAAVANNLFKGYHVQVTARDEDDLDENELLMKISNAAGARYSIQTSSKQQGKASTPPVKKSFTPSKSPAPVSKKEPVKTPSPAPAAKISSRVNDNNDDDDWNEPELKERDFDQAPLKPNQSSYKPIGKIDLQKVIAEEKAKEDPRLVQKPTAAGSKIDPSSDIANLKNESKLKRDSEFNSFLGTTKPPSMTESSLKNDDDKVIKGFRNEKSPAQLWAERKAKQNSGNAETKAEAPKPEVPEDEPEGEPDVKDLKSKFEGLAASEKEEEEMENKFAPPPKKSEPTIISPKPFSKPQEPVKAEEAEQPKTDYKKIGNPLPGMHIEADNEEEPEENDDDWDDDEDEAAQPPLPSRNVASGAPVQKEEPEQEEIAPSLPSRNSIPAPKQEEAPEQAPEEEIEEEAEEAAPQLPSRSSAAPPPPPRRATPEKKPKENPWATAEYDYDAAEDNELTFVENDKIINIEFVDDDWWLGELEKDGSKGLFPSNYVSLGN
- Protein-protein interaction distance between Abp1 SH3-swapped baits, to ABP1 (Abp1 bait with swapped SH3, distance to bait with ABP1 SH3): 0.00
- Protein-protein interaction distance between Abp1 SH3-swapped baits, to BBC1 (distance to Abp1 bait with BBC1 SH3): 7.08
- Protein-protein interaction distance between Abp1 SH3-swapped baits, to BEM1-1 (distance to Abp1 bait with BEM1-1 SH3): 14.06
- Protein-protein interaction distance between Abp1 SH3-swapped baits, to BEM1-2 (distance to Abp1 bait with BEM1-2 SH3): 32.3
- Protein-protein interaction distance between Abp1 SH3-swapped baits, to BOI1 (distance to Abp1 bait with BOI1 SH3): 11.59
- Protein-protein interaction distance between Abp1 SH3-swapped baits, to BOI2 (distance to Abp1 bait with BOI2 SH3): 14.52
- Protein-protein interaction distance between Abp1 SH3-swapped baits, to BUD14 (distance to Abp1 bait with BUD14 SH3): 17.23
- Protein-protein interaction distance between Abp1 SH3-swapped baits, to BZZ1-1 (distance to Abp1 bait with BZZ1-1 SH3): 9.504
- Protein-protein interaction distance between Abp1 SH3-swapped baits, to BZZ1-2 (distance to Abp1 bait with BZZ1-2 SH3): 10.54
- Protein-protein interaction distance between Abp1 SH3-swapped baits, to CDC25 (distance to Abp1 bait with CDC25 SH3): 26.13
- Protein-protein interaction distance between Abp1 SH3-swapped baits, to CTTN (distance to Abp1 bait with CTTN SH3): 9.394
- Protein-protein interaction distance between Abp1 SH3-swapped baits, to CYK3 (distance to Abp1 bait with CYK3 SH3): 26.78
- Protein-protein interaction distance between Abp1 SH3-swapped baits, to DBNL (distance to Abp1 bait with DBNL SH3): 8.805
- Protein-protein interaction distance between Abp1 SH3-swapped baits, to FUS1 (distance to Abp1 bait with FUS1 SH3): 18.44
- Protein-protein interaction distance between Abp1 SH3-swapped baits, to HCLS1 (distance to Abp1 bait with HCLS1 SH3): 7.682
- Protein-protein interaction distance between Abp1 SH3-swapped baits, to HOF1 (distance to Abp1 bait with HOF1 SH3): 30.98
- Protein-protein interaction distance between Abp1 SH3-swapped baits, to HSE1 (distance to Abp1 bait with HSE1 SH3): 9.43
- Protein-protein interaction distance between Abp1 SH3-swapped baits, to LSB1 (distance to Abp1 bait with LSB1 SH3): 13.24
- Protein-protein interaction distance between Abp1 SH3-swapped baits, to LSB3 (distance to Abp1 bait with LSB3 SH3): 13.53
- Protein-protein interaction distance between Abp1 SH3-swapped baits, to MYO3 (distance to Abp1 bait with MYO3 SH3): 12.85
- Protein-protein interaction distance between Abp1 SH3-swapped baits, to MYO5 (distance to Abp1 bait with MYO5 SH3): 12.37
- Protein-protein interaction distance between Abp1 SH3-swapped baits, to NBP2 (distance to Abp1 bait with NBP2 SH3): 16.16
- Protein-protein interaction distance between Abp1 SH3-swapped baits, to PEX13 (distance to Abp1 bait with PEX13 SH3): 10.96
- Protein-protein interaction distance between Abp1 SH3-swapped baits, to PIN3 (distance to Abp1 bait with PIN3 SH3): 11.43
- Protein-protein interaction distance between Abp1 SH3-swapped baits, to RVS167 (distance to Abp1 bait with RVS167 SH3): 9.548
- Protein-protein interaction distance between Abp1 SH3-swapped baits, to SDC25 (distance to Abp1 bait with SDC25 SH3): 33.14
- Protein-protein interaction distance between Abp1 SH3-swapped baits, to SHO1 (distance to Abp1 bait with SHO1 SH3): 8.989
- Protein-protein interaction distance between Abp1 SH3-swapped baits, to SLA1-1 (distance to Abp1 bait with SLA1-1 SH3): 28.73
- Protein-protein interaction distance between Abp1 SH3-swapped baits, to SLA1-2 (distance to Abp1 bait with SLA1-2 SH3): 19.01
- Protein-protein interaction distance between Abp1 SH3-swapped baits, to SLA1-3 (distance to Abp1 bait with SLA1-3 SH3): 13.16
- Protein-protein interaction distance between Abp1 SH3-swapped baits, to YSC84 (distance to Abp1 bait with YSC84 SH3): 13.97
